Results reported in publication PMC9708914 (iScience, 2022).

Key:
crystal structure = molecular target: the molecule itself; assay: crystal structure
cross-linking = molecular target: the molecule itself; assay: cross-linking

B1: Thermus thermophilus MgtE transmembrane (TM) domain (TtMgtE 268-450) (domain or fragment, UniProt Q5SMG8 268-450, looked up)
chain: VPDLVYSEAGPVALWLARVRWLVILILTGMVTSSILQGFESVLEAVTALAFYVPVLLGTGGNTGNQSATLIIRALATRDLDLRDWRRVFLKEMGVGLLLGLTLSFLLVGKVYWDGHPLLLPVVGVSLVLIVFFANLVGAMLPFLLRRLGVDPALVSNPLVATLSDVTGLLIYLSVARLLLEAV
B1: binds (crystal structure).

B2: MgtE ΔN T336C/L421C (TtMgtE 130-450, T336C/L421C) (domain or fragment, Thermus thermophilus, UniProt Q5SMG8 130-450, looked up)
chain: EEDEAGGLMTPEYVAVREGMTVEEVLRFLRRAAPDAETIYYIYVVDEKGRLKGVLSLRDLIVADPRTRVAEIMNPKVVYVRTDTDQEEVARLMADYDFTVLPVVDEEGRLVGIVTVDDVLDVLEAEATEDIHKLGAVDVPDLVYSEAGPVALWLARVRWLVILILTGMVTSSILQGFESVLEAVTALAFYVPVLLGTGGNTGNQSACLIIRALATRDLDLRDWRRVFLKEMGVGLLLGLTLSFLLVGKVYWDGHPLLLPVVGVSLVLIVFFANLVGAMLPFLLRRLGVDPACVSNPLVATLSDVTGLLIYLSVARLLLEAV
B2 was tested, and the “stoichiometry N” value (cross-linking) was 2.
